B1: KQQRIKMLILPPVPVPKIKGIDPDLLKEGKLEEVNTILAIHDSYKPEFHSDDS WVEFIELD (peptide)
chain: KQQRIKMLILPPVPVPKIKGIDPDLLKEGKLEEVNTILAIHDSYKPEFHSDDSWVEFIELD
notes: 61 amino acid peptide of GHR, residues 270-331

What was measured:
[1] = molecular target: GHR constructs with one of seven amino acids of the UbE motif (indicated as underlined in …) mutated to alanine; test: pull-down of 35S-labelled β-TrCP on GH-GHR beads, background (GHR 1-286) subtracted
GHR and β-TrCP = test: Inhibition of the interaction between GHR and β-TrCP; type: binding

| Molecule | inhibition of binding as compared to wtGHR [1] | inhibition of F-box protein (β-TrCP) interaction with ubiquitin/proteasome binding site of GHR (GHR and β-TrCP) |
| --- | --- | --- |
| in vitro-translated- and 35S-labelled-TrCP2 | > 60% | – |
| B1 | – | capable of providing inhibition |
